# ± gives the standard error. Variants at the floor of the assay were thinned out.
# B1: glmS ribozyme (parent)
# chain: AUAAAAGCGCCAGAACUACAGAAAUGUAGUUGACGAGGAGGAGGUUUAUCGAAUUUUCGGCGGAUGCCUCCAAA
# How the values were obtained:
# Details in all cases: with glucosamine-6-phosphate
# glucosamine-6-phosphate [1] = variants of: B1; test: self-cleavage kobs at 40 uM GlcN6P; higher = faster cleavage; RNA array
# How it was run: (§1)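 Using a hybridised Cy3 probe at 37 °C, barcoded ribozyme variants transcribed in situ by E. coli RNA polymerase on sequenced MiSeq chips were monitored across tiles imaged over ~14 h. The flow contained glucosamine-6-phosphate from 40 μM to 10 mM in HEPES/KCl/Mg(OAc)2 buffer. Signals were normalised to baseline and to non-cleaving reference variants before per-tile medians were fit to one- or two-exponential decays to yield kobs. Weighted Michaelis–Menten fits across concentrations gave kcat and KM.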
# glucosamine-6-phosphate [2] = variants of: B1; test: self-cleavage kobs at 160 uM GlcN6P; higher = faster cleavage; RNA array
# How it was run: as §1
# glucosamine-6-phosphate [3] = variants of: B1; test: self-cleavage kobs at 640 uM GlcN6P; higher = faster cleavage; RNA array
# How it was run: as §1
# glucosamine-6-phosphate [4] = variants of: B1; test: self-cleavage kobs at 2500 uM GlcN6P; higher = faster cleavage; RNA array
# How it was run: as §1
# glucosamine-6-phosphate [5] = variants of: B1; test: self-cleavage kobs at 10000 uM GlcN6P; higher = faster cleavage; RNA array
# How it was run: as §1
Variant,self-cleavage kobs at 40 uM GlcN6P (glucosamine-6-phosphate [1]) [s⁻¹],self-cleavage kobs at 160 uM GlcN6P (glucosamine-6-phosphate [2]) [s⁻¹],self-cleavage kobs at 640 uM GlcN6P (glucosamine-6-phosphate [3]) [s⁻¹],self-cleavage kobs at 2500 uM GlcN6P (glucosamine-6-phosphate [4]) [s⁻¹],self-cleavage kobs at 10000 uM GlcN6P (glucosamine-6-phosphate [5]) [s⁻¹]
C34U A48G,< 1e-05,< 1e-05,< 1e-05,< 1e-05,< 1e-05
C8G A33U,< 1e-05,< 1e-05,< 1e-05,< 1e-05,< 1e-05
G38C G43U,< 1e-05,< 1e-05,< 1e-05,< 1e-05,< 1e-05
C61U A64G C70G,< 1e-05,,,,
G40U G63U,< 1e-05,< 1e-05,,,< 1e-05
A48C G63U,< 1e-05,,< 1e-05,< 1e-05,< 1e-05
G51C U55A,< 1e-05,,< 1e-05,,
C8G U30C,< 1e-05,,,< 1e-05,< 1e-05
A6U A39C,< 1e-05,,,,
A14U G63U A64U,< 1e-05,,,,
A6G G7C,< 1e-05,< 1e-05,,< 1e-05,< 1e-05
G9C U45G,< 1e-05,< 1e-05,< 1e-05,< 1e-05,
C8G G29C A64G,< 1e-05,,,,
C34G U47G C68G,0.000102 ± 2.7e-05,0.000631 ± 0.00031,8.76e-05 ± 2.5e-05,7.01e-05 ± 2.4e-05,7.34e-05 ± 1.5e-05
C8G A12C U31C G32C,< 1e-05,,,,
G9U G41C A42U G44A,< 1e-05,< 1e-05,< 1e-05,< 1e-05,
A14C A53U U69C,5.39e-05 ± 1.6e-05,,,,
A15C C34A G37U G41A,< 1e-05,,,,< 1e-05
C8U C16U U46A G63A,< 1e-05,,,,< 1e-05
A36U G37C G41C U55G,< 1e-05,,< 1e-05,,< 1e-05
A6C G37A G41A A42U,< 1e-05,,,,< 1e-05
C11G G32U,< 1e-05,< 1e-05,,,< 1e-05
C8G A39G G59C,< 1e-05,,,,< 1e-05
G7U U31C C68G,0.000102 ± 3.2e-05,,,,

Variant,self-cleavage kobs at 40 uM GlcN6P (glucosamine-6-phosphate [1]) [s⁻¹],self-cleavage kobs at 160 uM GlcN6P (glucosamine-6-phosphate [2]) [s⁻¹],self-cleavage kobs at 640 uM GlcN6P (glucosamine-6-phosphate [3]) [s⁻¹],self-cleavage kobs at 2500 uM GlcN6P (glucosamine-6-phosphate [4]) [s⁻¹],self-cleavage kobs at 10000 uM GlcN6P (glucosamine-6-phosphate [5]) [s⁻¹]
C50G G63A C70G,0.000105 ± 2.6e-05,,0.000198 ± 4.3e-05,9.35e-05 ± 3e-05,8.99e-05 ± 1.5e-05
A6C G7A G40A,< 1e-05,,,,< 1e-05
C50G G66U C67A,0.000105 ± 1.9e-05,,,4.67e-05 ± 1.7e-05,0.000166 ± 2.7e-05
A6C G7U A12U A15U,< 1e-05,,,,< 1e-05
A12G G13C A33U G63U,< 1e-05,,,,< 1e-05
G13A G43C U65G,< 1e-05,,,< 1e-05,
G43C U46C,< 1e-05,< 1e-05,< 1e-05,< 1e-05,
A39G G59U,< 1e-05,< 1e-05,,,5.72e-05 ± 9.8e-06
G7A A12G,< 1e-05,,< 1e-05,< 1e-05,< 1e-05
A48G G60C C61G,< 1e-05,,,,
G38U U57G C67U C70U,8e-05 ± 2.6e-05,,0.000114 ± 4.7e-05,0.0013 ± 0.00059,4.29e-05 ± 1.9e-05
G37C G41U,< 1e-05,< 1e-05,< 1e-05,< 1e-05,< 1e-05
A12G A33G G37U,< 1e-05,,,,< 1e-05
G9A G13C U45G U57A,< 1e-05,,,,< 1e-05
G41U G63A,< 1e-05,,< 1e-05,< 1e-05,< 1e-05
G37C A39G C50U,< 1e-05,,,,
A6G U56A U65C,< 1e-05,,,,
G40A U57G,< 1e-05,,< 1e-05,< 1e-05,
G9C U57A,< 1e-05,,< 1e-05,< 1e-05,
C10A C50G G63C,0.000128 ± 3.3e-05,,,7.48e-05 ± 2.8e-05,4.91e-05 ± 1.8e-05
C50G U56G C61A,8.29e-05 ± 2e-05,,0.000426 ± 0.00014,0.00021 ± 4.8e-05,6.89e-05 ± 1.6e-05
C34U C50G A53U C68G,8.23e-05 ± 1.6e-05,,0.000541 ± 0.00016,,0.000111 ± 1.6e-05
G9U A36C,< 1e-05,,< 1e-05,< 1e-05,< 1e-05
